The text below walks through data of article PMC10896300.

One may read the stoichiometry N as a count of units in the complex or per binding partner.

The assay concerns the target Recombinant 6×His-tagged CrMCA-II (Chlamydomonas reinhardtii). The experiment in a line: SEC; purified rCrMCA-II in buffer without DTT and Ca2+; with 1 mM DTT in the SEC buffer the dimer-to-monomer ratio decreased.

With “Recombinant 6×His-tagged CrMCA-II (enzyme)”, the stoichiometry N came out at 2.
